{"source": "paper PMC4635569", "about": "(2015)", "binders": {"B1": {"name": "(D39)PspCN:FH complex (plasma-derived FH) (complex)", "chain 1": "EDCNELPPRRNTEILTGSWSDQTYPEGTQAIYKCRPGYRSLGNVIMVCRKGEWVALNPLRKCQKRPCGHPGDTPFGTFTLTGGNVFEYGVKAVYTCNEGYQLLGEINYRECDTDGWTNDIPICEVVKCLPVTAPENGKIVSSAMEPDREYHFGQAVRFVCNSGYKIEGDEEMHCSDDGFWSKEKPKCVEISCKSPDVINGSPISQKIIYKENERFQYKCNMGYEYSERGDAVCTESGWRPLPSCEEKSCDNPYIPNGDYSPLRIKHRTGDEITYQCRNGFYPATRGNTAKCTSTGWIPAPRCTLKPCDYPDIKHGGLYHENMRRPYFPVAVGKYYSYYCDEHFETPSGSYWDHIHCTQDGWSPAVPCLRKCYFPYLENGYNQNYGRKFVQGKSIDVACHPGYALPKAQTTVTCMENGWSPTPRCIRVKTCSKSSIDIENGFISESQYTYALKEKAKYQCKLGYVTADGETSGSITCGKDGWSAQPTCIKSCDIPVFMNARTKNDFTWFKLNDTLDYECHDGYESNTGSTTGSIVCGYNGWSDLPICYERECELPKIDVHLVPDRKKDQYKVGEVLKFSCKPGFTIVGPNSVQCYHFGLSPDLPICKEQVQSCGPPPELLNGNVKEKTKEEYGHSEVVEYYCNPRFLMKGPNKIQCVDGEWTTLPVCIVEESTCGDIPELEHGWAQLSSPPYYYGDSVEFNCSESFTMIGHRSITCIHGVWTQLPQCVAIDKLKKCKSSNLIILEEHLKNKKEFDHNSNIRYRCRGKEGWIHTVCINGRWDPEVNCSMAQIQLCPPPPQIPNSHNMTTTLNYRDGEKVSVLCQENYLIQEGEEITCKDGRWQSIPLCVEKIPCSQPPQIEHGTINSSRSSQESYAHGTKLSYTCEGGFRISEENETTCYMGKWSSPPQCEGLPCKSPPEISHGVVAHMSDSYQYGEEVTYKCFEGFGIDGPAIAKCLGEKWSHPPSCIKTDCLSLPSFENAIPMGEKKDVYKAGEQVTYTCATYYKMDGASNVTCINSRWTGRPTCRDTSCVNPPTVQNAYIVSRQMSKYPSGERVRYQCRSPYEMFGDEEVMCLNGNWTEPPQCKDSTGKCGPPPPIDNGDITSFPLSVYAPASSVEYQCQNLYQLEGNKRITCRNGQWSEPPKCLHPCVISREIMENYNIALRWTAKQKLYSRTGESVEFVCKRGYRLSSRSHTLRTTCWDGKLEYPTCAKR", "chain 2": "ATENEGSTQAATSSNMAKTEHRKAAKQVVDEYIEKMLREIQLDRRKHTQNVALNIKLSAIKTKYLRELNVLEEKSKDELPSEIKAKLDAAFEKFKKDTLKPGEK"}}, "biological_target": "human C3d (human, UniProt P01024 1002-1303)", "sequence (P01024 1002-1303)": "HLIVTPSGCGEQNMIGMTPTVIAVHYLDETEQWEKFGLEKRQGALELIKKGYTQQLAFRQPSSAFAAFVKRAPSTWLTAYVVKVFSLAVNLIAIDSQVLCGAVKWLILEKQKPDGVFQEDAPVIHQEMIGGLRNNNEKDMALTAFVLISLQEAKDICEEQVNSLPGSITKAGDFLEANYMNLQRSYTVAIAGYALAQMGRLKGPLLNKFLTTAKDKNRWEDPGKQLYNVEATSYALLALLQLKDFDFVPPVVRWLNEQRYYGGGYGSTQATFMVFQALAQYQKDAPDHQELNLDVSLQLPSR", "experiment": "SPR"}
{"binder": "B1", "values": [{"measurement": "Kd", "result": 2000, "unit": "nM"}]}
